Broadly, the Kd is a measure of binding affinity in units of concentration.

The chains are these.
B1: Oligo 4 (dsDNA)
DNA 1: TCGCTGTCTCAGTCGACGCTATTGAT
DNA 2: ATCAATAGCGTCGACTGAGACAGCGA
B2: Oligo 3 (dsDNA)
DNA 1: TCAATGTCGCCGTCGCTGTCTCAGTCG
DNA 2: CGACTGAGACAGCGACGGCGACATTGA
B3: Oligo 2 (dsDNA)
DNA 1: ATCGACGTCAACGGCAGCGTTCACAT
DNA 2: ATGTGAACGCTGCCGTTGACGTCGAT
B4: Oligo 1 (dsDNA)
DNA 1: ATCGACGTCGGCGTCGACATCGTGA
DNA 2: TCACGATGTCGACGCCGACGTCGAT

Substitutions are numbered along the chain they refer to.

The target in one data set is T1, ADF-1 (D. melanogaster) (Drosophila melanogaster, UniProt P05552 1-262).
T1 sequence: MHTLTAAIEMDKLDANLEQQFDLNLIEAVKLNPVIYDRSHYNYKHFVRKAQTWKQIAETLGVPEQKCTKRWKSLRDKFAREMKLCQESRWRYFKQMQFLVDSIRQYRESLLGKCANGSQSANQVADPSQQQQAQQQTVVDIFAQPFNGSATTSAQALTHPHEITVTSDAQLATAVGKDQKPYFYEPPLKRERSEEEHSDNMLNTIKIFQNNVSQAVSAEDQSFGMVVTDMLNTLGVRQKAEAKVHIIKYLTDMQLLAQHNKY
Description: EMSA.
In turn, B1 came in with a Kd of 1.63 µM.
With B2, the dissociation constant (Kd) amounted to 27.5 µM.
Same read-out and setting: the result for B3 reads 4.07 µM; that for B4, 1.98 µM.

Another data set addresses T2, ADF-1 (D. funebris) (Drosophila funebris, UniProt E2DD98 1-262).
T2 sequence: T1 sequence with T5S, L31M, P63S, S120N, N122S, S128T, S167G
Description: EMSA. For orientation: In EMSA bound probe runs differently from free probe, usually more slowly.
The molecule B1 had a Kd of 1.86 µM.
B2 registered an equilibrium dissociation constant (Kd) of 28.3 µM.
In turn, B3 had a Kd of 5.05 µM.
On the same count and under the same terms, in the case of B4 it was 1.95 µM.

(Values after paper PMC2965233.)
